The values below come from patent US20040014072, “Novel dna synthase” (published 2004).

For series [1], the target named is T1, p41-p46 complex (DNA primase/polymerase) (Pyrococcus furiosus, UniProt Q9P9H1;Q8U4H7 SEQ:1-347,SEQ:1-396).
T1 sequence 1: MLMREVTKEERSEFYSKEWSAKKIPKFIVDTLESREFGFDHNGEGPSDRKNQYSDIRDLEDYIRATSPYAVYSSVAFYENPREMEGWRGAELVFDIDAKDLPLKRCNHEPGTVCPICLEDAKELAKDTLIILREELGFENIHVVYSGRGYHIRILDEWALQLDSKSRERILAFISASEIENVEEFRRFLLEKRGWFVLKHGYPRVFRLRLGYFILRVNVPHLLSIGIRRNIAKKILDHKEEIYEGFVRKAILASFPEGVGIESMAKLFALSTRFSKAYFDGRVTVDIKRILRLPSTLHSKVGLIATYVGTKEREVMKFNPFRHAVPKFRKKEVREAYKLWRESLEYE
T1 sequence 2: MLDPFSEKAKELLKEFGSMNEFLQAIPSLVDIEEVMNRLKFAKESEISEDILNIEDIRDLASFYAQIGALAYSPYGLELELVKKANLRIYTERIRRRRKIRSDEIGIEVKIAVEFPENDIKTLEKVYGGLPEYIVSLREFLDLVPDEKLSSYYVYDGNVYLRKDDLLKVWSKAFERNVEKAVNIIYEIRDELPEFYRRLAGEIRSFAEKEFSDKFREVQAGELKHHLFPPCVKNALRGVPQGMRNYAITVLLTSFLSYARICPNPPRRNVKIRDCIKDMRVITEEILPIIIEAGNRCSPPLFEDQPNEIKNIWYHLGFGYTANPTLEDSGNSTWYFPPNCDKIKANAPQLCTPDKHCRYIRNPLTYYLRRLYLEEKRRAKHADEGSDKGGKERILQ
In words: EMSA; 50 mM Tris-Cl pH 8.0, 10 mM MgCl2, 20 mM KCl, 55 C. The conditions noted are these: tags: N-terminal His6 on p41, p46 untagged, label: 5'-32P. As to the method:
(§1) The gel-shift assey was used to detect binding activity that binds enzyme to DNA. 49 chain-length oligodeoxynuclotide, 5′-d[…] GCT-3′ was labeled with ³²P at 5′ terminal. Then the chain was used for gel-shift assey with itself or annealed with 49 or 17 chain length complementary oligodeoxynuclotide. With these three kinds of DNA, and the proteins were mixed in variety of concentrations in gel-shift assey buffer (50 mM Tris.Cl, pH8.0, 10 mM MgCl₂, 20 mM KCl, and 1 mM β-mercaptoethanol). The mixtures were left for 5 minutes under temperature of 55° C. and separated by electrophoreting with 1% agarose gel. The gel was processed by 0.1×TAE buffer (4 mM Tris-Acetate, pH8.0, 0.1 mM EDTA) and electrophoreted with same buffer. Autoradiography after the electrophoration was shown in FIG. 5. p41-p46 complex bound to all types of DNA and shifted the band as the complex.
On the technique in general: In EMSA bound probe runs differently from free probe, usually more slowly.

The next series deals with T2, p41 (Pyrococcus furiosus, UniProt Q9P9H1 SEQ:1-347).
T2 sequence: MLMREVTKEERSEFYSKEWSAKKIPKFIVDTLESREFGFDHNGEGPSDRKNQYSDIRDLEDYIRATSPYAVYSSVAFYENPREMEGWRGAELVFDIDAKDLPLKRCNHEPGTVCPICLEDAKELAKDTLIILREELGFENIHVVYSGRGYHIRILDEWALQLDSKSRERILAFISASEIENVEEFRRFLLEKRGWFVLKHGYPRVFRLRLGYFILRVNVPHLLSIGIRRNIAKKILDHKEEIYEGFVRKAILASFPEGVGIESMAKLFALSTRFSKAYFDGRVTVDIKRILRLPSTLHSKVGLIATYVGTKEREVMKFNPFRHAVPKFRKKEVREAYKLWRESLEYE
The experiment in a line: EMSA; no band shift for p41 alone, data not shown. Conditions: tags: N-terminal His6, label: 5'-32P. The procedure:
as §1

Another series deals with T3, p46 (Pyrococcus furiosus, UniProt Q8U4H7 SEQ:1-396).
T3 sequence: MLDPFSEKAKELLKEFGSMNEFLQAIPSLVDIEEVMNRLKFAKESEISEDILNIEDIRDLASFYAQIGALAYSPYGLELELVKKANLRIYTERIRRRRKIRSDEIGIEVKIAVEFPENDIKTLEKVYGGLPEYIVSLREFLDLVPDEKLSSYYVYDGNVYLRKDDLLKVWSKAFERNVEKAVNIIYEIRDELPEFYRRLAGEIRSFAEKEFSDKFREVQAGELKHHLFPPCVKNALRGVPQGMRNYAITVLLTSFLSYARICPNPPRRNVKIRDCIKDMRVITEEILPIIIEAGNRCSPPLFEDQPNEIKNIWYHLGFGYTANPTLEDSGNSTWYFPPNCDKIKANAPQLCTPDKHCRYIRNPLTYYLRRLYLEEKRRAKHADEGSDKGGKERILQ
The experiment in a line: EMSA; no band shift for p46 alone, data not shown. Conditions: label: 5'-32P. The procedure: as §1

With AGCTACCATGCCTGCACGAATTAAGCAATTCGTAATCATGGTCATAGCT (ssDNA) [49-mer oligodeoxynucleotide], the binding result was “binds” in series [1], “no binding” with p41 and “no binding” with p46.

B1: 49-mer annealed to complementary 49-mer (dsDNA)
DNA 1: AGCTACCATGCCTGCACGAATTAAGCAATTCGTAATCATGGTCATAGCT
DNA 2: AGCTATGACCATGATTACGAATTGCTTAATTCGTGCAGGCATGGTAGCT
As for B1, the values for the binding result (in series [1] (full duplex); with p41 (full duplex); with p46 (full duplex)) were “binds”, “no binding” and “no binding”, respectively.
